Source: patent US7083949

Experiments:
human IL-6 (human) [1] = target: human IL-6 (human) (UniProt P05231); assay: cell-based or functional assay
human IL-6 (human) [2] = target: human IL-6 (human) (UniProt P05231); assay: 20 pM 125I-IL-6 preincubated with 500 pM mAb B-E8 for 20 hours, chase with 20 nM unlabelled IL-6, Protein G-Sepharose precipitation

human IL-6 (human), sequence (P05231 30-212 limits assumed): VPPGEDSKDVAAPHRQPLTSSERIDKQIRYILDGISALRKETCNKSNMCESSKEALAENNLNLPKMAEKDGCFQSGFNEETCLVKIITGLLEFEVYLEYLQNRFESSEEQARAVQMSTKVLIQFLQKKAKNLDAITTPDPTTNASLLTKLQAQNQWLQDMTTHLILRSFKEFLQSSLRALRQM

B1: anti-IL-6 monoclonal neutralizing antibody B-E8 (antibody, from another filing, V domains shown)
VH: QVTLKESGPGILKPSQTLSLTCSFSGFSLSTSGMGVGWIRQPSGKGLEWLAHIWWDDDKYYNPSLKSQLTISKDTSRNQVFLKITSVDTADTATYYCARSYDDYLYYALDYWGQGTSVTVSS
VL: DIVMTQSPATLSVTPGDRVSLSCRASQSISDYLHWYQQKSHESPRLLIKSVSQSISGIPSRFSGSGSGSDFTLSINSVEPEDVGVYYCQNGHSFPLTFGAGTKLELK
Binder B1 has an inhibition of IL-6-dependent proliferation of XG-1 cells (MTT) (fold molar excess over IL-6) (human IL-6 (human) [1]) of 10 and a percent of initial 125I-IL-6 counts still bound after three days (human IL-6 (human) [2]) of under 5%.
